The record followed here is the NTF2 design screens of Basanta et al. (2020).

This series in a line: protease stability score; higher = more stable; yeast display proteolysis, trypsin and chymotrypsin.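 Note: log10 excess protease needed over predicted unfolded state with 0 meaning unfolded.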
For “DQQHTASKVLSDMVKAIQDGDEDHISEQADENVKIRIGDKEYHGKENARRMLKEIQHQVDHISVEVKSVSSHNGRVNVRAEVQMRFNGRSTSYDVTAIFRYNNGQLRLYSVSAR”, the protease stability score was found to be 0.242. Take “DHELENLVEKIMSALTRNNPEDIRSLFDPNARFNIGDKTWNGMDRYITELKKEVDEWDMSVELHSVDIQGNKASAHVEQTAHHDGEPDSFEYTMKLDFHNGKARRQRVNSRK”: the protease stability score is -0.248. The same measure for “DPKKVEDVAKKVAKAFQDGNEEELKKHLDPTGRAKIADEETQGIEQIIKKLKKVMKLGVQVENKETRYEGNRVEFHTEYRDGDKQATMTVVYHADNGKVKEIRVQYDRDAKEMYEKG”: 0.658; for “DEENQQDYARKMNEMIVQNDPDEALRLFDPNVKVDIGDTRIDGRHDLERWVEDLKKQVDHVQLHDVKFRGDHASIHIEMTVNGRTISQIYHIVFHNGKAKEMKVETK”: 0.567.

“DEEELQSVKEYIENLQTNNESRLRKYADPNAQITVGDKVIHGMEDFQRQMEEDRRHSRISFKSVEFRYHDGKAVVHAEFTHVDNGQPDEVRVDYRFKLHNGRIKSQNVREVK” returned a protease stability score of -0.331. “DEELQELATRQMEALHTNDEKQWVDLFDPNARQRYGDKTIKGREQFSQHLRDMQRHMRVQIHTFSAQVSNGDIHLKIDQLNNVNGTPYRDTVHLEFRVHNGRVKEVILHVSEDQQKKIER” showed a protease stability score of 0.918. The same measure for “DETKAAQVAAELISAIVHGDTDRALELADKDVRADIGENKVHGREEMHKMVEQYDKSVDHASVKTYKVSGNSVKVNVEVTHNGRKRTVDFTAEAHNGKAKQVTAEVK”: -0.768; for “EEELQKKASEFIRLQQKGDSEEVMKNVDPNARINVGDKVYDGREQLAKDLHRSKRESRMHFDLKSISVENGKVDVRARMHVVENGQPRRFRVRIIFHQENGRITHFQYHTDD”: 0.258; for “DEEDLHRNMKQMLKDFNTGDPDKIQEQIDPNAKVQVGDTTFHGREEAHRMARDFRHQVDHIQLKEVKVRGNEFEASVVVKYDGKERRFVMQANVHNGKVKKLWFEDK”: 0.063. Regarding “DEEQVREAMEIVKHGDPDKFRKQADKDVRLTIGDTEYHGREDVMTVLVSFLRTVDHLNIKSVDVRGDKAVINADFNYNGKEININIHLEFHNGRLKSVQIQATNREDQKDLKRIIK”, the protease stability score was 1.28. For “DEEAEKRFEELMENRKTGNEHDVSEYADPNVTARIGDHEVRGREQLHDLQRKEKEEMRVDIKDYRLDFNGDTVRVEVHLEDEHNGRPRDRHQSNSFRWQNGKLKELHIRSDK” the value was -0.353; for “DEKKVKEIAKKAFEYAVKGNEEQLQKLVKPNVDYEYVDEKYEGEDVVKKMVRLLKKVGAEVKIKRYEVKGDTVKADFDYNKGDKTVRTTAEVVYNGDKITQARLELTDEVKKIMHQG”, 0.681; for “EEHQTKEWSKMLEVMTKGDKDKFRERADPNVRARVGDRTLHGWENVVRTELRRQHEISIDIHEMDVRSEGDKVVARYEFRQNQNGRPRRRDVTVTFRLHNGRLQEQHVQDTG”, 0.148. Sequence “DEENMEVLEKVLDAMRTGDKKKVRDNLDKDARIEIGDHVLNGREEFAKWVVQIKKEIKVQINIQSVDVSNGRVRVHAQVEFRVNGQPQQYTIHIVAEIHNGHIKTLRMSFDDDQQRKFES” returned a protease stability score of 0.924. For “DEDEDDKMRKLIKTNNPQEIAQNADPNVEATVGNKTYHGREQMQQIAEIFRTMADHVHVDRVDADNGHVSAHRVITVNGHKVNVKVRFNISNGRIKRQEIDVTSEQDHRELEKNYN” the value was 0.162. For the sequence “ERDSLKHVAREMEKNNFDEMLHNADKDVEIHYGNRSVHGHKRAQSFWERLKSRVDHISFKSYSINNGRIVMSFKVVIDGQDIEVHISIEVENGTIKHVQFQATSEEIEKLLEKLMD”, the protease stability score came to 1.36. Regarding “DDDAARQFEEVMKAVEHGDPHQVEELVDPNATFNVGDKRWHGMRENMQEHISRFQSINMTVEIKRVEDTNGRAKFEASVTRNDNGKPDTFTVEIVVRVHNGEIKEVQLNNTK”, the protease stability score amounted to 0.158.

As for “DERKEAKEFADRIVKIIQTNNQDELEKNADPDVRVDVGDKQVHGREQLQDELKKLRTRADHVEVKIQDFKVHNGSVTVQMTIVYVVNGQKHKDERVYHAEIHNGRVKLKSARQK”, the protease stability score stood at 0.767. “DTSDNKRAKELLDVLRTGDKEDFKNLVDENVRVVVGDKEVHGRDEIAEDISRKKKEMRYTFKVEDLQDHNGHVKVDMRQSSEHNGSPHHSDAKVTVNFENGKVHDVVLRDDG” yielded a protease stability score of -0.04. For “DEEDLDTVAQTFVTALKQGDPHQVMKLADEDVKATVGDERVHGSQHVNELIKRFRRNVDHVDIEDYRIHNGKIRMRVRLTVNGRTQNLNMVLIVRNGRLKMFKIDPQDVRQFHG” the value was 0.972; for “DEDLTKRFRQLIKAQETGDPDKIKNQVDKDVHAHVGDKTVSGREKLATQIHRDVQHSHFKVHVDNVRNHGNKVEVDARMVMNINGRPVTFTVNMDFTFHDGTIHRIKMSISEEDKKKTDS”, 0.793; for “DEEEAKEFADVFKNGDQDRYADLFDPNARVNIGNKEYHGRERVRTAVRTFFQRIDHIQVNHVRIEGNQLRIDAKMEINGQRIQVVFKVRIHNGHIKQFVVDFRDEQTMREFHKQLE”, 1.27.

On to “DEDANDVVRKYIEAVNTGDPDQVNELVDPNVRVEVGDKTLSGHEEIRKEQQERTKQSRVEIEVKQMKVHGDNIILYAVVRYNHNGKPSSRHVKMTFSAHNGHFKHIRVHDDQ”, for which the protease stability score is 0.809. The same measure for “DEKALEFIRKFEEVMKKGDHDTLKEMMDPNARFQYGDKTVHGREHAADWAKRVRDQMRVRIISVKYTARGNKATIQVRNQVNFNGRPLHDHFEVSFDMHNGKIKHASRTLSEEQRQRLEQ”: 0.062. As to “DEHAEHIATEWWKAIRTNNPERARELVDKDVKINVGDKRIHGREQVDREIKRLNNTSRQDYKSMHMTVKGDKVRVEMNKRQEDNGNPRSKNFEVVFDFHNGRIRHISVHETK”, the protease stability score is -0.381. Sequence “DEDSEAHKLLRELEKVLSTGDEDKMRRLADPNASIRIGDTQIRGRTQIQDHVKRHKEHVDKVSIDVKEVTAQGNKANMKYVIRVQINGRTHQEQVRVDVDLQGDKFKIKQWTEG” yielded a protease stability score of 0.055.

For “DEKTAASQFFRDLRHALRQGDETRIMELADENVEFQIGDKRWHGRESAMELARHVHNRADTVELRIEDLKIDNGQMNADVLITFNHNGRNETQRVNVRARIHNGHVVLVEVHQK”, the protease stability score stood at 1.62.

“DEEEQERAMEKLDHAIEKGDPDDAVELLDENADAVIGDKRYHGREAATTFMHELRKQIDHIHIRDMQIDNGRAHIEVDARHNGQERKINVVFVFHNGRATSMENRSE” returned a protease stability score of 1.02.

On to “DTHDEKHVAQNVVDALRRNDPDQLRRMMDPNVHFEVGDKTIHGREDAARQLKEIKKNVDHFQVDDVTMSNGRVHAIIRVEINGQERRNVVQADVKNGHVKFQRIKDQ”, for which the protease stability score was -0.084. Regarding “DEETDAKKAKDDMQHVANTNNPKDRETLLDENAEIVVGDEKYQGRHDVQKLNQEIEKRVDEVRVEVTEVTIQGDKLHVDAVFRVRVNGKTEQDRKVIVMDIHNGSVKVRFIHQP”, the protease stability score turned out to be 0.94.

Sequence “DENKEAKHFAQDINDAFQHNDPDHLNRLFDPNARMQIGDKEIRGKEQFKEENRRMVDQVDKVEVHVKEISVHNGRVEFVLIIRENHNGRNTQTSVEVNAEKQNGQIRIRQETEQ” gave a protease stability score of -0.307. In turn, “DSHTIAKELMKTWQDAARNNDEDKLKELIDKDASASVGDKTFHGRESFARHVQEQARRADHLEVRLESMSINGDHIHLQFVVRYNVNGKESSDRYVVIFHKVNGKFRVRQIKQR” displayed a protease stability score of 0.721.

With “DEEKDEDVARQVAHAAATGDTKRLVELMRDNVRFQIGDKTFSGRENLSKAMERIDKHVDHLEVKSIEAHGDTVRADVTMTVNGKTHVVKIEAVVHNGHARELVLHDR”, the protease stability score is 0.06. The same measure for “DEKQVHKMARQLVKALEHNDPQKVADLVDENVRASIGDTEYHGREHVKKAIKQMVDSIDHMRVRTVTAHNGTIDIDFQVVVNGRTERYQMRAEVHNGRIQSLRVDKR”: 2.02; for “DTEARKLIEELLRAVRDGDPDQVKQNADPNARVQYGDQTFHGMDRYAEWVEEMHKQARVSIEFDSFSFTGDKVQMHAKHVVEVNGKPQRDTVVIRAVVRGDKIRNIHFRMDEQRVRDQQS”: 0.783; for “DEKKVREFMERLFKAAENGNKDELRKVLMPNVKYQYVDKEKEGEEVAKEVAKAVKKVGAEIKKQEERVKGDTVEAVFQYKQGDTTVQTTVQIKYEGDKAKEVRVKLSDEVKKIVHRG”: -0.079. “DKDAAQLFHQYLEAKKHNNEDQLRENMDPNVQWTIGDKVITGREEAAKRMVDENREQRVEISHMQVHDNNGHAVFRADVRYKHNGKPSRSRFVVRVQARNGKIHSVKVERHS”: the protease stability score came to 0.076. As to “DEENADVIRRFLDAIHTGNPDDARKNADPNAQYKIGDKTYSGMERWVKTLQDQKRHQEIDIKIKHISVKGDKITVEFVVVVNINGRPVSFSAILSAEVKNGKIKHLQYHISEEQKRKVEG”, the protease stability score came to 0.222.

As for “DEDREKEVVDILRDGNPDDAREMADENVTVRVGNKVIHGREEYHRFIKRMQDQADHRHIDSVHHRPGRVRIQFRAVVDGQKFSAQMTVKVENGRVKSAQLDATDESVKKILEHIFG”, the protease stability score amounted to 1.16. With “DEERSNLVESVFRALEHNDEKRLNELFDPNVNVQIGDDKIRGREELVKFMRTLKRQMRIRYRTMDLHVQGDKVVVRATFEVNVNGTPHNVTMEFHAEVHNGKFKHARIKIPEEKLKTMQS”, the protease stability score turned out to be 1.57. For “DQENLDVLRRLWEALESGNPDKYSQLIDPNAEVVVGDKTYEGKENLKQEIRTERDEMRKEIDWKSMSVHNGQANAEAKIRSNHNGDPREMVVTARARFHNGKLQNYEQHVDK” the value was -0.325; for “DEEKLHTIAKKAADIVQSGDEEKIIRLADPNAEMRIGDQELHGMDDAKRVLHEFMKRVDHVSVKTWHVQGNRIRLDVKFEVNGRDIRVELDITIENGEIDSMEFDPRARDAQKT”, 0.183; for “DEERELEELMQRLISLMKNGNPKEVAKLLDPNVRVQYGDKRLHGREQAIRRIESLRRHVDHVTMSIESLQVEGDKVSARIEAVYDVNGTQDQRTIELELRQVNGKLRFKHITFK”, 0.017. For the sequence “DEEVVRQIEDNLNAQRRNDHEKLKENMDPNATVNVGDKQIHGMSQFAQHVRDMFRHIRRSIKDFRIEVRPNHANVDVKFEVNINGKPESMSANVSVRVTNGTVQEMTIRVDPEHVKRIRR”, the protease stability score stood at 0.816.
